The values that follow are results of earlier work, collected in publication PMC5010500 (Journal of molecular biology, 2016).

One may read the Kd as the free concentration of one partner at which half of the binding sites on the other are occupied at equilibrium, for simple one-to-one binding.

In the series the target is Keap1 Kelch domain (Homo sapiens) (UniProt Q14145). As to the kind of experiment: ITC. As to conditions: cited from earlier work.
Keap1 Kelch domain (Homo sapiens), sequence (Q14145 321-609): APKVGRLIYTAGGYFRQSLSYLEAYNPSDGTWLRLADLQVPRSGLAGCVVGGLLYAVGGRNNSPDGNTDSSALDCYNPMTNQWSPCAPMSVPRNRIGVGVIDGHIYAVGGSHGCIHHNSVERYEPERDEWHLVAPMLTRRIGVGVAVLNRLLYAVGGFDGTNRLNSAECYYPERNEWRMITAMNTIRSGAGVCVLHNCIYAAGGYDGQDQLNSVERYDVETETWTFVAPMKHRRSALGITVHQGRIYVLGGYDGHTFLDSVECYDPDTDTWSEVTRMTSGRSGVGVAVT

mVP24, sequence (P35256 whole entry): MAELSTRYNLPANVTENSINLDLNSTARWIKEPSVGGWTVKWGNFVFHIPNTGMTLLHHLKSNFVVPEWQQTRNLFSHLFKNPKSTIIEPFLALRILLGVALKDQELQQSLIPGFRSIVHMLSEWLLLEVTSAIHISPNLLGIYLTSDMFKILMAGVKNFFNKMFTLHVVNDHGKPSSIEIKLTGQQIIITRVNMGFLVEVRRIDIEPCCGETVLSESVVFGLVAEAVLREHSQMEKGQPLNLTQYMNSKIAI

For mVP24 (from UniProt P35256), the Kd is 160 nM.
